For the data set the following is noted: whole UniProt chain shown.
Where [1] appears, read: Gallus gallus, pH 7.4, 25 °C, GdnHCl, CD, Tris 50 mM, KCl 100 mM, reversible: yes.
Where [2] appears, read: Geobacillus stearothermophilus, pH 5.4, 25 °C, Thermal, CD, acetate 20 mM, NaCl 100 mM, reversible: yes.
Where [3] appears, read: Geobacillus stearothermophilus, pH 5.4, 25 °C, Urea, CD, acetate 20 mM, NaCl 100 mM, reversible: yes.
The mark [4] stands for this setting: Geobacillus stearothermophilus, pH 5.4, 25.15 °C, Urea, CD, sodium acetate 10 mM, Nacl 100 mM.
Setting [5] is: Geobacillus stearothermophilus, pH 5.4, Thermal, CD, acetate 20 mM, NaCl 100 mM, reversible: yes.
[6] abbreviates: Geobacillus stearothermophilus, pH 5.45, 10 °C, GdnHCl, CD, sodium acetate,sodium sulfate.
Setting [7] is: Geobacillus stearothermophilus, pH 5.45, 25 °C, Urea, CD, Sodium phosphate 20 mM, NaCl 100 mM, reversible: Yes.
[8] abbreviates: Geobacillus stearothermophilus, pH 5.45, 25 °C, Urea, CD, sodium phosphate 10 mM, NaCl 100 mM, reversible: Yes.
Setting [9] is: Geobacillus stearothermophilus, pH 5.45, 25 °C, Urea, CD, sodium phosphate 20 mM, sodium chloride 100 mM, reversible: yes.
Where [10] appears, read: Geobacillus stearothermophilus, pH 5.45, 25 °C, Urea, Fluorescence, Sodium phosphate 20 mM, NaCl 100 mM, reversible: Yes.
The mark [11] stands for this setting: Geobacillus stearothermophilus, pH 5.5, 25 °C, Urea, CD, NaAc 20 mM, NaCl 100 mM.
Where [12] appears, read: Geobacillus stearothermophilus, pH 5.5, 25 °C, Urea, CD, Sodium phosphate 20 mM, NaCl 100 mM.
Setting [13] is: Geobacillus stearothermophilus, pH 8, 25 °C, GdnHCl, CD, Tris-HCl 20 mM, sodium chloride 100 mM, reversible: yes.
Where [14] appears, read: Geobacillus stearothermophilus, pH 8, 25 °C, Urea, CD, Sodium phosphate 20 mM, NaCl 100 mM, reversible: Yes.
Where [15] appears, read: Geobacillus stearothermophilus, pH 8, 25 °C, Urea, CD, sodium phosphate 20 mM, sodium chloride 100 mM, reversible: yes.
The mark [16] stands for this setting: Geobacillus stearothermophilus, pH 8, 25 °C, Urea, Fluorescence, Sodium phosphate 20 mM, NaCl 100 mM, reversible: Yes.
[17] abbreviates: Escherichia coli, pH 5, 23 °C, Urea, DSC, Acetic acid/MES/Tris 50 mM/50 mM/100 mM/, reversible: yes.
Setting [18] is: Escherichia coli, pH 8, Thermal, DSC, Tris/MES/Acetic acid 100 mM/50 mM/50 mM/, reversible: yes.
Setting [19] is: Fusarium vanettenii, pH 9, Thermal, DSC, Tris 10 mM, NaCl 40 mM, reversible: no.

The text below walks through data of FireProtDB.

Values joined by “and” are separate entries in the source; they are usually repeats but may differ in a detail not shown here. Equal entries are not always repeated.

B1: Apolipoprotein A-I wild type, P08250 (protein)
chain: MRGVLVTLAVLFLTGTQARSFWQHDEPQTPLDRIRDMVDVYLETVKASGKDAIAQFESSAVGKQLDLKLADNLDTLSAAAAKLREDMAPYYKEVREMWLKDTEALRAELTKDLEEVKEKIRPFLDQFSAKWTEELEQYRQRLTPVAQELKELTKQKVELMQAKLTPVAEEARDRLRGHVEELRKNLAPYSDELRQKLSQKLEEIREKGIPQASEYQAKVMEQLSNLREKMTPLVQEFRERLTPYAENLKNRLISFLDELQKSVA
Take B1: the unfolding free energy (Gallus gallus, pH 7.4, 20 °C, GdnHCl, Fluorescence, Tris 50 mM, KCl 100 mM, reversible: yes) was found to be 2.93 kcal/mol. For the same protein, under setting [1], the denaturant m value came to 2.78 kcal/mol/M and the unfolding free energy is 1.86 kcal/mol.

B2: Large ribosomal subunit protein bL9 wild type, P02417 (protein)
chain: MKVIFLKDVKGKGKKGEIKNVADGYANNFLFKQGLAIEATPANLKALEAQKQKEQRQAAEELANAKKLKEQLEKLTVTIPAKAGEGGRLFGSITSKQIAESLQAQHGLKLDKRKIELADAIRALGYTNVPVKLHPEVTATLKVHVTEQK
Usually Tm stands for the temperature at the midpoint of the melting transition. Turning to B2, the unfolding free energy was 2.1 kcal/mol (Geobacillus stearothermophilus, pH 5.4, 25 °C, GdnHCl, CD, phosphate 10 mM, NaCl 100 mM, reversible: yes); 2.18 kcal/mol under setting [2]; 1.9 kcal/mol under setting [3]; 4.3 kcal/mol under setting [4]; 6.02 kcal/mol under setting [6]; 3.82 kcal/mol (Geobacillus stearothermophilus, pH 5.45, 25 °C, Thermal, CD, Sodium phosphate 20 mM, NaCl 100 mM, reversible: Yes (>90%)). Further, the unfolding free energy was 3.32 kcal/mol under setting [7]; 4.17 kcal/mol under setting [8]; 3.91 kcal/mol under setting [9]; 3.84 kcal/mol under setting [10]; 4.3 kcal/mol and 5.85 kcal/mol under setting [11]; 4.3 kcal/mol under setting [12]. Further, the unfolding free energy under setting [13] is 5.9 kcal/mol; the unfolding free energy under setting [14] stood at 6.45 kcal/mol; the unfolding free energy under setting [15] is 6.38 kcal/mol; the unfolding free energy under setting [16] came out at 6.49 kcal/mol; the unfolding free energy (Geobacillus stearothermophilus, pH 8, Thermal, CD, Sodium phosphate 20 mM, NaCl 100 mM, reversible: Yes (>90%)) came out at 5.77 kcal/mol. Also, the “heat capacity change of unfolding” value was 0.38 kcal/mol/K under setting [2] and 0.38 kcal/mol/K under setting [5]. The denaturant m value was determined as 0.48 kcal/mol/M under setting [3]; 0.66 kcal/mol/M under setting [4]; 1.52 kcal/mol/M under setting [6]; 1.32 kcal/mol/M under setting [7]; 0.66 kcal/mol/M under setting [8]; 1.21 kcal/mol/M under setting [9]. The denaturant m value amounted to 1.24 kcal/mol/M under setting [10]; 0.66 kcal/mol/M under setting [11]; 0.66 kcal/mol/M under setting [12]; 2.24 kcal/mol/M under setting [13]; 1.02 kcal/mol/M under setting [14]; 1.02 kcal/mol/M under setting [15]. For the same protein, under setting [16], the denaturant m value worked out at 1.05 kcal/mol/M. For the same protein, the “denaturant midpoint (higher = more stable)” value is 3.96 M under setting [3] and 6.5 M under setting [4]. The Tm under setting [5] was found to be 65.3 °C and the Tm (Geobacillus stearothermophilus, pH 7.4, Thermal, CD, Tris 10 mM, NaCl 100 mM, reversible: yes(95-100%)) stood at 77 °C. For the same protein, the “unfolding enthalpy (van 't Hoff)” value under setting [5] came to 26.3 kcal/mol.

B3: Dihydrofolate reductase type 2 wild type, P00383 (protein)
chain: MERSSNEVSNPVAGNFVFPSNATFGMGDRVRKKSGAAWQGQIVGWYCTNLTPEGYAVESEAHPGSVQIYPVAALERIN
Take B3: the denaturant m value under setting [17] amounted to 1.46 kcal/mol/M. Moreover, the “denaturant midpoint (higher = more stable)” value under setting [17] is 3.63 M. The unfolding free energy is 13.3 kcal/mol under setting [17]; 15.5 kcal/mol (Escherichia coli, pH 5, 30 °C, GdnHCl, CD, Acetic acid/MES/Tris 50 mM/50 mM/100 mM/, reversible: yes); 13.5 kcal/mol (Escherichia coli, pH 5, 30 °C, GdnHCl, Fluorescence, Acetic acid/MES/Tris 50 mM/50 mM/100 mM/, reversible: yes); 9.63 kcal/mol (Escherichia coli, pH 8, 30 °C, GdnHCl, CD, Tris/MES/Acetic acid 100 mM/50 mM/50 mM/, reversible: yes). The Tm under setting [18] worked out at 71 °C. Also, the “unfolding enthalpy (calorimetric)” value under setting [18] was determined as 307 kcal/mol.

B4: Phosphoglycerate kinase wild type, P18912 (protein)
chain: MNKKTIRDVDVRGKRVFCRVDFNVPMEQGAITDDTRIRAALPTIRYLIEHGAKVILASHLGRPKGKVVEELRLDAVAKRLGELLERPVAKTNEAVGDEVKAAVDRLNEGDVLLLENVRFYPGEEKNDPELAKAFAELADLYVNDAFGAAHRAHASTEGIAHYLPAVAGFLMEKELEVLGKALSNPDRPFTAIIGGAKVKDKIGVIDNLLEKVDNLIIGGGLAYTFVKALGHDVGKSLLEEDKIELAKSFMEKAKEKGVRFYMPVDVVVADRFANDANTKVVPIDAIPADWSALDIGPKTRELYRDVIRESKLVVWNGPMGVFEMDAFAHGTKAIAEALAEALDTYSVIGGGDSAAAVEKFGLADKMDHISTGGGASLEFMEGKQLPGVVALEDK
B4: the unfolding free energy (Geobacillus stearothermophilus, pH 7.2, 25 °C, GdnHCl, Fluorescence, TEA 50 mM, reversible: no) is 13.2 kcal/mol and 9.3 kcal/mol; the unfolding free energy (Geobacillus stearothermophilus, pH 7.2, 25 °C, GdnHCl, Fluorescence, tri-ethanolamine 50 mM, reversible: Yes) was determined as 8.76 kcal/mol.

B5: Cutinase 1 wild type, P00590 (protein)
chain: MKFFALTTLLAATASALPTSNPAQELEARQLGRTTRDDLINGNSASCRDVIFIYARGSTETGNLGTLGPSIASNLESAFGKDGVWIQGVGGAYRATLGDNALPRGTSSAAIREMLGLFQQANTKCPDATLIAGGYSQGAALAAASIEDLDSAIRDKIAGTVLFGYTKNLQNRGRIPNYPADRTKVFCNTGDLVCTGSLIVAAPHLAYGPDARGPAPEFLIEKVRAVRGSA
Turning to B5, the Tm (Fusarium vanettenii, pH 4.5, Thermal, Fluorescence, Sodium acetate 25 mM, reversible: Yes) was 75 °C. Moreover, under setting [19], the “unfolding enthalpy (calorimetric)” value is 104 kcal/mol and 92.3 kcal/mol; the “unfolding enthalpy (van 't Hoff)” value is 212 kcal/mol and 122 kcal/mol.

B6: Head completion protein wild type, P68660 (protein)
chain: MTRQEELAAARAALHDLMTGKRVATVQKDGRRVEFTATSVSDLKKYIAELEVQTGMTQRRRGPAGFYV
As for B6, the unfolding free energy (Escherichia phage lambda, pH 8, 25 °C, Urea, CD, Tris 10 mM, reversible: yes) is 2.91 kcal/mol and 3.27 kcal/mol. Further, for the setting “Escherichia phage lambda, pH 8, Thermal, CD, Tris 10 mM, reversible: yes”, the Tm was 71.6 °C and 71.8 °C.
